System: Modified p53 (human p53 engineered to contain the HIV-1 protease cleavage site VSFNFPQITL upstream o)

HIV-1 protease was tested, and the “SDS-PAGE migration of purified p53 fusion protein after co-expression with HIV-1 protease (cleavage)” value was “The mutagenized p53 migrated more quickly than the wild-type protein (as did p53Δ30), but only after coexpression with HIV-1 protease”.
